Results taken from the nanobody polyreactivity screen of Harvey et al. (2022).

Test: yeast display, Sf9 membrane polyspecificity reagent, FACS + sequencing; frameworks hold sequencing errors
Procedure, shortened: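 In a synthetic yeast display library (Saccharomyces cerevisiae BJ5465), nanobody expression was induced with galactose for 36–48 hours. FACS gates were set low and high (top ~1%) using anti-HA fluorescence for expression and streptavidin fluorescence for binding of the Sf9 membrane reagent. Each polyreactivity label is drawn from the gate of origin.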

Row | Sequence | polyreactivity (PSR sort gate)
1 | QVQLVESGGGLVQAGGCLRLSCAASGFIFYVNAMGWYRLAPGKERELVAAISSSGTRTYYADSVKGRFTISRDNAKNTVYLQMNSLKPEDTAVYYCNAAQSVELGYDYWGQGTQVTVSS | high polyreactivity
2 | QVQLVESGGGLVQAGGSLRLSCAASGTFDTYSMGWNRQAPGKERELVADISSVGSTYYADSVKWRFTISRDNAKNTVYLQMNSLKPEDTAVYYCAATYPYPYYYIEYYYWGQGTQVTVSS | low polyreactivity
3 | QVQLVESGGGLVQAGGSLRLSCAASGSTFPAYAMGWYRQAPGKERELVAGISSGGRTYYADSVKGRFTISRDNAKNTVYLQMNSLKPEDTWVYYCAAFRFYWQRPERYYYWGQGTQVTVSS | high polyreactivity
4 | QVQLVESGGGLVQAGGSLRLSCAASGLIFNLYAMGWYRQAPGKEREFVATITGIGGSTYYADSVKGRFTISRDIAKNTVYLQMNSLKPDDTAVYYCAADAWFVPYNYWGQGTQVTVSS | low polyreactivity
5 | QVQLVESGGGLVQAGGSLRLSCADSGYTIILYVMGWYRQAPGKERELVAVITLSGGITYYADSVKGRFTISRDNAKNTVYLQMNSLKPEDTAVYYCAVDVYHNRYFTLTSWYHYDSWGQGTQVTVSS | low polyreactivity
6 | QVQLVESGGGLVQAGGSLRLSCAASGRIFPFYAMGWYIQAPGKERELVAAISRSGRTNYADSVKGRFTISRDNAKNTVFLQMNSLKPEDTAVYYCNADYYLFDFDSWGQGTQVTVSS | low polyreactivity
7 | QVQLVESGGGLVQAGGSLRLSCAASGTIFVGYAMGWYRQAPGKERELVAAISWSGGRTYYADSVKGRFTISRDNAKNTVYLQMNSLKPEDTAVYYCAAPRYGGWRSYQKYDYWGQGTQVTVSS | high polyreactivity
8 | QVQLGESGGVLVQAGGSLRLICAACGSTFSYYTMGWYRKAPGKEREVVAVIYTSGGNTYYADSVKGRFTISRDNAKNTVYLQMNSLKPEDTAVYYCAARWYGRGRYEYWGQGTQVTVSS | high polyreactivity
9 | QVQLVESVVGLVQAGGSLRLSCDASGRIFRYYAMGWYRQAPGKERELVARITSSGSTYYADSVKGRFTISRDNAKNTVYLQMNSLKPDDTAVYYCAADWYWGGIVDSWGQGTQVTVSS | high polyreactivity
10 | QVQLVDSGGGLVQEGGSLRLSCAASGSIFSTYARGWYRQAPGKEWEVVAAITRGGRTTYADSVKGRFTISRDNAKNTVYLQMNSLKPEDTAVYYCNAVGVYYWWYRLYDYWGQGTQVTLSS | high polyreactivity
11 | QVQLVESGGGLVQAGGSLRLSCAASGFIIGRNVMGWYRQAPGKERELVAAISYSGGSTYYADSVKGRFTISRDNAKNTVYLQMNSLKPEDTAVYYCNAEAWVSQDWCQWVAYDYWGQGTQVTVSS | high polyreactivity
12 | QVQLVESGGGLVQAGGSLRLSCAASGSTFRTYAMGWYRQAPGKERDLVASIDSTGSTNYADSVKGRFTISRDNAKNTVYLQMNSLKPEDTAVYYCAAETYSDPPFYAYDYWGQGTQVTVSS | low polyreactivity
13 | QVQLVESGGGLVQAGGSLRLSCAASGRIFLINAMGWYRQARGKEWELVAAIRTGGNTYYADSVKGRFTISRDNAKTTVYLQMNSLKPEDTAVYYCAAARIYPYYRWSGAHRSDVDYWGQGTQVTVSS | low polyreactivity
14 | QDQLVKSGGGLVQAGGSLRLSCAASGSTFTRNAMGWYRQAHGKERELVAAITLRGGRTYYADSVNGRFTISRDNAKNTVYLHMNSLKPEDTAVYYCAAKPYSAYSYYEQRGRKYDYWGQGTQVTVSS | low polyreactivity
15 | HVQLVESGGGLVQAGGSLRLSCAASGSTFSRYAMGWYRQAPGKERELVAAISSSGGSTYYADSVKGRFTISRDNAKNTVYLQMNSLKPEDTAVYYCAARQYFFSSWRFDYWGQGTQVTVSS | high polyreactivity
16 | QVQLVESGGGLVQAGGSLRLSCAASGRILYKYAMGWYRQAPGKERELVAAISWRGTTTYYADSVKGRFTISRDNAKNTVYLQMNSLKPEDTAVYYCAKDRSYGYFSRPVSQYDYWGQGTQVTVSS | high polyreactivity
17 | QVQLVESGGGVVQAGGSLRLSCAAYGRTFYVYTLGWYRPAPGKERELVAANTSGGSTNYADCVMGRFTISRDYAKNTVYLQMNSLKPEDTAVYYCAAKRYNRLRSYRYSDREDYWGQGTQVTVSS | high polyreactivity
18 | QDQLVETGGGLVQAGGSLRLSCAASGSTFWGNAMGWYRQAPGKESELVAAISTSDTSTYYADSVKGRFTISRDNAKNTVYLQMNSLKPEDTAVYYCAAEWYYGEKYDYWGQGTQVTVSS | low polyreactivity
19 | QVQHVESGRGLVQAGGSLRLSCAASGSIQGGNARGCSSQAPGKESELVAAITFSGGGTYYADSVKGRLTISRDNAKNTVYLQMNSVKPEDTAVYYCAADIDGYTYEFDYWGQGTQVTVYS | low polyreactivity
20 | QVQLQESGGGLVQAGGSLRLRCAASGYISAGRQMGWYRQGPGKEREFVATINGGATTNYADSVKGRFTISRDNAKNSVYLQMNSLKPEDTAVYYCAVRTYIYDIHRYWGQGTQVTVSS | high polyreactivity
21 | QVQLVESGGGLVQAGGSLRLSCAASGSTFGGYAMGWYRQAPGKEWELVAAISWNGDSTYYADSVKGRFTISRDNAKNTVYLQMNSLKPEDTAVYYCAAPYSGPYRSYEYYWGQGTQVTVSS | low polyreactivity
22 | QVQLVESGGGIVQAGGSLRLSCAASGIISRVYAMGWYRQAPGKERELVAAISGSGGTTYYADSVKGRFTISRDNAKNTVYLQMNRLKPEDTAVDYCAARYKALYDYWGQGTQVTVSS | high polyreactivity

Row | Sequence | polyreactivity (PSR sort gate)
23 | QVQLVESGGGLVQAGCILRLSCAASGFTFSWYAMGWYRQARGKERELVAAISYSGDSTYYADSVKGRFTISRDNAKNTVYLQMNSLKPEDTAVYYCARRSYYATYYPQPFGYNYLGQGTQVTVSS | high polyreactivity
24 | QVQLVESGGGLVQAGGSLRLSCAASGSTFGRYVMGWYRQAPGKERELVAAISYSGGRTYYADSVKGRFTISRDNAKNTVYLQMNSLKPEDTAVYYCNKGGIREYDYWGQGTQVTVSS | high polyreactivity
25 | QVQLVESGGGLVQAGGSLRLSCAASGSTFGINAMVWYRQAPGKERELVASITRRGGSTYYADSVKGRFTISRDNAKNTVYLQMNSLKPEDTAVYYCNKTYRYGTPLYDYWGQGTQVTVSS | high polyreactivity
26 | QVQLVESGGGLVQAGGSLRLSCAASGFIFRLYTMGGYRQAPGKERELVAAISWSGGRTYYADSVKGRFTISRDNAKNTVYLQMNSLKPEDTAVYYCAKDLYLHTYYAYPYRFGSGYYWGQGTQVTVSS | low polyreactivity
27 | QFQLVESGGGLVQAGGSLRLSCADSGIIFRDNAMGWYRQAPGKERELVATIRRRGGGTYYADSVKGRFTISRDNAKNTVYLQMNSLKPEDSAVYYCAARVIKSSHDYDYWGQGTQVTVSS | low polyreactivity
28 | QVHLVESGGGLVQAGGSLRLSCAASGFTFGINAMGWYRQAPGKERELVAAINQSGDRTYYADSVKGRFTISRDNAKNPVYLELNSLKPDDTAVYYCAADTSYWYDYYIDYVGYYYWGQGTQVTVSS | high polyreactivity
29 | QVQLVESGGGLVQAGGSLRLSCAASGIIFDQNVMGWYRQAPGKERELVAAIRQTGGSTYYADSVKGRFTISRDNAKNTVYLQMNSLKPEDTAVYYCNAKPPGWFWGGFSYNRYYYWGQGTQVTVSS | low polyreactivity
30 | QVQLVESGGGLVQAGGSLRLSCAASGIILTEYAMGWYRQAPGKERELVAAINRVGSTNYADSVKGRFTISRDNAKNTVYLQMNSLKPEDTAVYYCAAGTYYNDYDYWGQGTQVTVSS | low polyreactivity
31 | QVQRVESGGGLVQAGGSLRLSSADSGLTLYRYAMGWYRQAPGKERELVAAISSGDRTNYADSVKGRFTISRDNAKNTVYLHMNSLKPEDTAVYYCAALRQARQKKYGYWGQGTQVTVSS | high polyreactivity
32 | QVQLVESGGGLVQAGGSLRLSCAASGSIFVYYAMRWYRQAPGKERELVAAITIGASTDYADSVKGRFTISRDNAKNTVYLQMNSLKPEDTAVYYCAADLYYGDYRTLPKPDEYDYWGQGTQVTVSS | low polyreactivity
33 | QVQLVESGGGLVQAGGSLRLSCAASGFIFYGYDMGWYRQAPGKETELVASISVRGGDTYYADSVKGRFTISRDNAKNTVYLQMNSLKPEDTAVYDCNAEGYPGRFSYGVVYGDVGYDYWGQGTQVTVSS | low polyreactivity
34 | QVQLVESGGGLVQAGGSLRLSCAASGRTIGWYTMGWYRQERGKERELVAAISGRGGSTTYADSVKGRFTISRDNAKNTVYLQMNSLKPEDTAVYYCAKRRVRGTTRRYGYWGQGTQVTVSS | high polyreactivity
35 | QVQLVESGGGLVQAGGRLRLSCAASGSTFGYYAMGWYRQAPGKERELVAAITFSVGGTYYADSVKGRFTISRDNAKNTVYLQMNSLKPEDTAVYYCNVDYYVPPAGVTRTGDDVYWGKGTQVTVSS | low polyreactivity
36 | QVQLVESGGGLVQAGGSLRLSCAASGSIFRAYAMGWYRQAPGKERELVAAISWGGGSTSYADSVKGRFTLSRDNAKNTVYLQMNSLNPEDTAVYYCNKVSLSKRRDYYWGQGTQVTVSS | high polyreactivity
37 | QVQLVESGGGLVQAGVSLRLSCAASGFTFPWYAMGWYLQAPGKERELVAAISWTGGSTYYADSVKGRFTSSRDNPKNTVNLQMLSLKPEDTAVYYCAVGIYDHLYNHEYWGHGTQVTVSS | low polyreactivity
38 | QVKLVESGGGLVQAGGSLRLSCAASGGTFQPNARGWNRQAPGKERELVAAISWSDGSTYYADSVKGRFTISRDNAKNTVYLQMNSLKPEDTAVYYCAADFTYYDSPYRDYNYESWGQGTQVTVSS | low polyreactivity
39 | QVQLVESGGGLVQAGGSLRLSCAASGSTFYTNAMGWSRQAPGKQREFVAALSGRGSNTYYADSVKGRFTISRYNAKNTVYLQMNSLKPEDTAVYYCAARRLAGFGYWGQGTQVTVSS | high polyreactivity
40 | QVQLVESGGGLVQAGGSLRLSCAASGTTFYSNAMGWYRQAPGKEREFVAAISYSGGSTYYADSVKGRFTISRDNAKYTVYLQMNSLKPEDTAVYYCNARNWYYDGDYWVQGTQVTVSS | high polyreactivity
41 | QVNHVESGGGLVQAGGSLRLTCAASGRTFSRYVMGWYRQSPGKERELVAAISRTGGRTYYADSVKGRFTISRDNAKNSVYLQMNSLNPEDTAVYYCYAGTVLISTYDYWGQGTQVTLSS | high polyreactivity
42 | QVQLVESGGGLVQAGGSLRLSCAASGFTFYYYPMGWYRQAPGKERELVAAISSSGGRTYYADSVKGRFTISRDNSKNTVYLQMNSLKPEDTAVYYCAADRYFRSYDYWGQGTQVTVSS | high polyreactivity
43 | QGQLVESGGGLGQEGCSLRLSCAASGNTFIINAMGWYRQARGNERELVAAITSGGSTNYADSVKGRFTISGDNAKNTVYLQMNSLKPEDTAVYDCAARTRLYYYKVRKYRMDYWGQGTQVTVSS | low polyreactivity
